Conditions in all cases: both partners purified
Assay [1] deals with T1, luminal domain of human LAP1 (aa356-583) (human, UniProt Q5JTV8).
T1 construct: luminal domain of human lamina-associated polypeptide 1 (LAP1), aa356-583; Tag removed with human rhinovirus 3C protease; disulfide bond C424-C582 seen in the structure; also called LAP1(356-583); Lamina-associated polypeptide 1; not shown: 6xHis-7xArg, N-terminal, cleaved
In words: crystal structure; LAP1-VHH-BS1 complex formed with twofold molar excess of VHH-BS1, SEC purified; crystals in 20% PEG 3350, 100 mM Bis-Tris pH 5.5, 200 mM ammonium sulfate, 18°C; 1.6 Å.

In assay [2] the target is T2, luminal domain of human LAP1 (aa356-583), untagged, co-expressed with TorsinA (human, UniProt Q5JTV8).
T2 construct: luminal domain of human lamina-associated polypeptide 1 (LAP1), aa356-583, untagged; From a second, kanamycin resistant modified pETDuet-1 vector; also called LAP1(356-583)
T2 sequence (Q5JTV8 356-583): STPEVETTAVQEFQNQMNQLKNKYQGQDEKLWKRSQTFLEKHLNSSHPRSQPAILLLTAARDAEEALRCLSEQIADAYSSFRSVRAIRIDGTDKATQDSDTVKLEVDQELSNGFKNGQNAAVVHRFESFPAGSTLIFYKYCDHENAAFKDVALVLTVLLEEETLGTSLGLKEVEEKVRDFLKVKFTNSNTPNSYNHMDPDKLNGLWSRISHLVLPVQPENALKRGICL
The assay can be described thus: in vitro precipitation assay (competition); 100 pmol preformed TorsinA(E171Q):LAP1 complex with 200 pmol VHH, 4°C, 10 mM HEPES/NaOH pH 8.0, 150 mM NaCl, 10 mM MgCl2, 0.25 mM ATP; soluble and insoluble protein separated by centrifugation, SDS-PAGE.

In assay [3] the target is T3, human TorsinA(E171Q) (aa51-322) (human, UniProt O14656 51-322, E171Q).
T3 construct: human TorsinA, aa51-322 as printed; Captured by its tag on nickel resin; the nickel eluate was used directly for electron microscopy; Whether the tag was removed before the analytical gel filtration and the precipitation assay is not clearly told; not shown: 6xHis-7xArg, N-terminal, kept
T3 sequence (looked up): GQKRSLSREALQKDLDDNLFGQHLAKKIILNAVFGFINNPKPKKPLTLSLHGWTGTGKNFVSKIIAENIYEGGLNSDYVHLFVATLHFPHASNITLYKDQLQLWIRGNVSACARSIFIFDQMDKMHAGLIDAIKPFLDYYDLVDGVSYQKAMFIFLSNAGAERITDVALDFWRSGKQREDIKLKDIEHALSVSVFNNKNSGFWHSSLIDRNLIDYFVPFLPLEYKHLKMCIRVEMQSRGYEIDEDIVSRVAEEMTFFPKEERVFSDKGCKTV
In words: SEC; analytical gel filtration of the co-purified complexes, Superdex 200 10/300, 10 mM HEPES/NaOH pH 8.0, 150 mM NaCl, 10 mM MgCl2, 0.5 mM ATP; peak fractions by SDS-PAGE. (Size exclusion chromatography separates by hydrodynamic size, large species first.)

T1 sequence (Q5JTV8 356-583): as the sequence (Q5JTV8 356-583) above

B1: VHH-BS1 (VHH)
VHH: QVQLVESGGGLVQAGGSLRLSCAASGRTLSSYAVGWFRQAPGLEREFVATISRSGGSTHYADSVKGRFTISRDNAKNTVYLQMNSLKPEDTAVYYCAATFTPDGSWYYTRGSSYDYWGQGTQVTVSS
notes: alpaca VHH selected by phage display against LAP1; Raised by immunising an alpaca with recombinant LAP1; expressed from pET-28b(+); also called camelid single domain (VHH) antibody fragment against LAP1
Turning to B1, the binding result in assay [1] and in assay [2] was “binds” throughout.

B2: luminal domain of human LULL1 (aa233-470), untagged, co-expressed with TorsinA (domain or fragment)
chain: not shown
notes: luminal domain of human LULL1, aa233-470, untagged; The results once print LULL1(322-570); the methods print aa233-470 throughout; also called LULL1(233-470); Luminal domain-Like LAP1
Usually stoichiometry N stands for a count of units in the complex or per binding partner. As for B2, in assay [3], the “stoichiometry N” value is 1.

B3: luminal domain of human LAP1 (aa356-583), untagged, co-expressed with TorsinA (domain or fragment)
chain: not shown
notes: luminal domain of human lamina-associated polypeptide 1 (LAP1), aa356-583, untagged; From a second, kanamycin resistant modified pETDuet-1 vector; also called LAP1(356-583)
With B3, the “stoichiometry N” value in assay [3] was 1.

For the origin of these results see article PMC4358337, “How lamina-associated polypeptide 1 (LAP1) activates Torsin” (eLife, 2014).
